# US20230233607A1 (University of California, published 2023)
# T1: LexA-CIB1-biLINuS
# T1 chain: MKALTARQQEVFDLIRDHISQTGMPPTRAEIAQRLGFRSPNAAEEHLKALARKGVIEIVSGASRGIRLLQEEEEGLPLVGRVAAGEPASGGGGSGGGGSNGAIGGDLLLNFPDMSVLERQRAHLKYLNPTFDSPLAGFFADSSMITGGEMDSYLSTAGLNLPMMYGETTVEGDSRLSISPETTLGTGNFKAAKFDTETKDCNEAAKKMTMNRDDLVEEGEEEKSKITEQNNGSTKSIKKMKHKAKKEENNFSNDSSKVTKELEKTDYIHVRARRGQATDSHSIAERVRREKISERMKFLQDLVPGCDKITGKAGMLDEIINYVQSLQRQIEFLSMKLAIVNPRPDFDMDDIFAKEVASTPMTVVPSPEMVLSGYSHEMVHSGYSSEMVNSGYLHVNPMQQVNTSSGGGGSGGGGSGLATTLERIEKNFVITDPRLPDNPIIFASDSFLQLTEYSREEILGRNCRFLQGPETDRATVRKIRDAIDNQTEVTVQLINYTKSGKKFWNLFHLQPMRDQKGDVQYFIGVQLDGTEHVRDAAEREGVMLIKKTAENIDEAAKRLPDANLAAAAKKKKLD
# What was measured:
# LexA-CIB1-biLINuS = target: T1, LexA-CIB1-biLINuS; assay: cell-based or functional assay
# LexA-CIB1 (No biLINuS) = assay: cell-based or functional assay
binder,measurement,setting,value
CRY2PHR-VPR (other) MKMDKKTIVWFRRDLRIEDNPALAAAAHEGSVFPVFIWCPEEEGQFYPGRASRWWMKQSLAHLSQSLKALGSDLTLIKTHNTISAILDCIRVTGATKVVFNHLYDPVSLVRDHTVKEKLVERGISVQSYNGDLLYEPWEIYCEKGKPFTSFNSYWKKCLDMSIESVMLPPPWRLMPITAAAEAIWACSIEELGLENEAEKPSNALLTRAWSPGWSNADKLLNEFIEKQLIDYAKNSKKVVGNSTSLLSPYLHFGEISVRHVFQCARMKQIIWARDKNSEGEESADLFLRGIGLREYSRYICFNFPFTHEQSLLSHLRFFPWDADVDKFKAWRQGRTGYPLVDAGMRELWATGWMHNRIRVIVSSFAVKFLLLPWKWGMKYFWDTLLDADLECDILGWQYISGSIPDGHELDRLDNPALQGAKYDPEGEYIRQWLPELARLPTEWIHHPWDAPLTVLKASGVELGTNYAKPIVDIDTARELLAKAISRTREAQIMIGAAPASPKKKRKVEASSPGIRRLDALISTSLYKKAGYKEASGSGRADALDDFDLDMLGSDALDDFDLDMLGSDALDDFDLDMLGSDALDDFDLDMLINSRSSGSPKKKRKVGSQYLPDTDDRHRIEEKRKRTYETFKSIMKKSPFSGPTDPRPPPRRIAVPSRSSASVPKPAPQPYPFTSSLSTINYDEFPTMVFPSGQISQASALAPAPPQVLPQAPAPAPAPAMVSALAQAPAPVPVLAPGPPQAVAPPAPKPTQAGEGTLSEALLQLQFDDEDLGALLGNSTDPAVFTDLASVDNSEFQQLLNQGIPVAPHTTEPMLMEYPEAITRLVTGAQRPPDPAPAPLGAPGLPNGLLSGDEDFSSIADMDFSALLGSGSGSRDSREGMFLPKPEAGSAISDVFEGREVCQPKRIRPFHPPGSPWANRPLPASLAPTPTGPVHEPVGSLTPAPVPQPLDPAPAVTPEASHLLEDPDEETSQAVKALREMADTVIPQKEEAAICGQMDLSHPPPRGHLDELTTTLESMTEDLNLDSPLTPELNEILDTFLNDECLLHAMHISTGLSIFDTSLF,increase of Fluc signal in the light-stimulated group comparing to the dark group (Jurkat cells),LexA-CIB1-biLINuS,> 1000 fold
same,induction of Fluc activity normalized by Rluc upon light stimulation compared to the dark control (HEK 293T),LexA-CIB1-biLINuS,133 fold
same,"mean cellular fluorescence intensity of mNeonGreen reporter, dark group, compared to the non-transfected cells (HEK 293T)",LexA-CIB1-biLINuS,1.7 fold
same,"mean cellular fluorescence intensity of mNeonGreen reporter, light group, compared to the non-transfected cells (HEK 293T)",LexA-CIB1-biLINuS,61 fold
same,induction of Fluc activity normalized by Rluc upon light stimulation compared to the dark control (HEK 293T),LexA-CIB1 (No biLINuS),68 fold
